Data on five molecules can be found in paper PMC10823522, “Antibodies Raised Against an Aβ Oligomer Mimic Recognize Pathological Features in Alzheimer’s Disease and Associated Amyloid-Disease Brain Tissue” (ACS Central Science, 2023).

In data set [1] the test system is cells. The settings on record: cited from earlier work. The source says:
Like oligomers of full-length Aβ, 2AT-L is toxic toward cells in culture, eliciting toxicity by interacting with the cells and promoting membrane disruption and release of LDH, depleting ATP, and activating caspase-3/7-mediated apoptosis.

In data set [2] the target is 2AT-L, covalently stabilized triangular trimer composed of three Aβ17-36 β-hairpin peptides (2AM-LCC). As to the kind of experiment: crystal structure; X-ray crystallographic structure of 2AT-L at 1.8 Å; assembly seen in the crystal lattice.
Data set [3] has the same target. As to the kind of experiment: SDS-PAGE; silver stained; Tris buffer at pH 6.8 with 2% (w/v) SDS; 5.0, 2.5, 1.25 and 0.6 μg of 2AT-L or 2AM-L in each lane.
Data set [4] can be described thus: SDS-PAGE. The format is physicochemical. The settings on record: Aβ42, 16.5% Tris-Tricine gel, 0.25–0.016 mM, 10 μL per lane.
Data set [5] in a line: ThT aggregation assay of Aβ42. It is filed as physicochemical. The settings on record: 6.25 μM Aβ42 in PBS pH 7.4, 10 μM ThT, 25 °C, quiescent; ex 440 nm, em 485 nm. Here is the method:
Figure 3 In vitro characterization of pAb2AT-L with 2AT-L and 2AM-L and Aβ42. (A) Indirect ELISA of pAb2AT-L against 2AT-L, 2AM-L, and BSA. (B) Western blot analysis of pAb2AT-L against a concentration gradient of 2AT-L. SDS-PAGE was performed on a 16.5% Tris-Tricine gel (Bio-Rad); 10 μL was loaded in each lane. (C) Indirect ELISA of pAb2AT-L and 6E10 against Aβ42. (D and E) Western blot analysis of pAb2AT-L (D) and 6E10 (E) against a concentration gradient of Aβ42. SDS-PAGE was performed on a 16.5% Tris-Tricine gel (Bio-Rad); 10 μL was loaded in each lane. (F and G) Dot blot analysis of pAb2AT-L (F) and 4G8 (G) against 6.25 μM Aβ42 aggregated over time in PBS. A 1 μL portion of the Aβ42 solution was spotted in triplicate on 0.2 μm nitrocellulose membranes every 30 min for 5 h and then at 96 h. (H and I) Average integrated spot density from the dot blots in F and G. Integrated density for each spot was determined using ImageJ. (J and K) Change in integrated spot density from the 0-h time point. (L) ThT aggregation assay of 6.25 μM Aβ42. The ThT assay was performed at 25 °C under quiescent conditions in PBS (10 mM Na2HPO4, 1.8 mM KH2PO4, 137 mM NaCl, 2.7 mM KCl) at pH 7.4 containing 10 μM ThT. ThT fluorescence was monitored at 440 nm excitation and 485 nm emission. […]

Data set [6] relates to Aβ protofibrils in brain and cerebrospinal fluid. The settings on record: Alzheimer's disease transgenic mice; cited from earlier work. The text has this:
Antibodies that target monomeric, oligomeric, and fibrillar forms of the β-amyloid peptide (Aβ) are valuable tools for Alzheimer’s disease research and have emerged as Alzheimer’s disease therapies.[4],[5] […] These antibodies act by binding Aβ aggregates and facilitating their clearance from the brain, mitigating both the direct and downstream damaging eff ...

The test system of data set [7] is Aβ and its aggregates. The settings on record: cited from earlier work. The source says: The 6E10 and 4G8 monoclonal antibodies—among the most extensively used Aβ antibodies in Alzheimer’s disease research—were generated by immunizing mice with a peptide fragment that encompassed the N-terminal half of Aβ (Aβ1–24).[58],[59]

In the case of “full-length Aβ: full-length β-amyloid peptide”, in data set [1], the “ATP depletion by full-length Aβ” value is listed as “ATP depletion”, the “LDH release by full-length Aβ” value is “promotes LDH release” and the “caspase-3/7 activation by full-length Aβ” value was “caspase-3/7 activation”.
In the case of “2AT-L, covalently stabilized triangular trimer composed of three Aβ17-36 β-hairpin peptides (2AM-LCC) (complex)”, the stoichiometry N (copies of 2AT-L) in data set [2] and in data set [3] was 4 throughout.
In the case of Aβ42: 42-amino-acid alloform of Aβ, the “predominant oligomers on SDS-PAGE” value in data set [4] was “migrate at a molecular weight consistent with a trimer and tetramer”. In addition, in data set [5], the “time at which ThT-reactive aggregates begin to form” value was 1 h and the “time at which ThT-reactive aggregates plateau” value is recorded as 1.75 h.

B1: Lecanemab: anti-Aβ antibody drug (antibody, chains of the INN, looked up, V domains shown)
VH: EVQLVESGGGLVQPGGSLRLSCSASGFTFSSFGMHWVRQAPGKGLEWVAYISSGSSTIYYGDTVKGRFTISRDNAKNSLFLQMSSLRAEDTAVYYCAREGGYYYGRSYYTMDYWGQGTTVTVSS
VL: DVVMTQSPLSLPVTPGAPASISCRSSQSIVHSNGNTYLEWYLQKPGQSPKLLIYKVSNRFSGVPDRFSGSGSGTDFTLRISRVEAEDVGIYYCFQGSHVPPTFGPGTKLEIK
Regarding B1, the “Aβ protofibrils in brain and cerebrospinal fluid” value in data set [6] was “reduced Aβ protofibrils in the brain and cerebrospinal fluid”. Further, the “target selectivity of Lecanemab” value in data set [7] is on record as “selectively targets Aβ protofibrils”.

B2: Donanemab: anti-Aβ antibody drug (antibody, chains of the INN, looked up, V domains shown)
VH: QVQLVQSGAEVKKPGSSVKVSCKASGYDFTRYYINWVRQAPGQGLEWMGWINPGSGNTKYNEKFKGRVTITADESTSTAYMELSSLRSEDTAVYYCAREGITVYWGQGTTVTVSS
VL: DIVMTQTPLSLSVTPGQPASISCKSSQSLLYSRGKTYLNWLLQKPGQSPQLLIYAVSKLDSGVPDRFSGSGSGTDFTLKISRVEAEDVGVYYCVQGTHYPFTFGQGTKLEIK
Regarding B2, the “target of Donanemab” value in data set [7] was “targets N-terminally pyroglutamated Aβ that is aggregated in Aβ plaques”.
